B1: Get3 from yeast (recombinant Get3/TA complex) (natural protein, UniProt Q12154 1-354, looked up)
chain: MDLTVEPNLHSLITSTTHKWIFVGGKGGVGKTTSSCSIAIQMALSQPNKQFLLISTDPAHNLSDAFGEKFGKDARKVTGMNNLSCMEIDPSAALKDMNDMAVSRANNNGSDGQGDDLGSLLQGGALADLTGSIPGIDEALSFMEVMKHIKRQEQGEGETFDTVIFDTAPTGHTLRFLQLPNTLSKLLEKFGEITNKLGPMLNSFMGAGNVDISGKLNELKANVETIRQQFTDPDLTTFVCVCISEFLSLYETERLIQELISYDMDVNSIIVNQLLFAENDQEHNCKRCQARWKMQKKYLDQIDELYEDFHVVKMPLCAGEIRGLNNLTKFSQFLNKEYNPITDGKVIYELEDKE
notes: Get3 of yeast; also called yeast Get3; source: recombinant, purified as Get3/TA complex
B2: Get3 from zebra fish (recombinant Get3/TA complex) (natural protein)
chain: not shown
notes: Get3 of zebra fish (Danio rerio); also called zebra fish Get3; source: recombinant, purified as Get3/TA complex

Biological target: the molecule itself
Test: SEC; recombinant Get3/TA complex from yeast or zebra fish; SEC and SDS-PAGE (Fig. S10); conditions not shown

Row | Protein | stoichiometry N
1 | B1 | 2
2 | B2 | 2
